# Values of other authors, collected in paper PMC10060530.
# Legend:
# NaV1.7 (Homo sapiens) = NaV1.7 (Homo sapiens) (UniProt Q15858)
# [1] = molecular target: NaV1.2 (Rattus norvegicus) (UniProt P04775)
# [2] = molecular target: NaV1.4 (Rattus norvegicus) (UniProt P15390)
# UniProt P04775, sequence (P04775 whole entry): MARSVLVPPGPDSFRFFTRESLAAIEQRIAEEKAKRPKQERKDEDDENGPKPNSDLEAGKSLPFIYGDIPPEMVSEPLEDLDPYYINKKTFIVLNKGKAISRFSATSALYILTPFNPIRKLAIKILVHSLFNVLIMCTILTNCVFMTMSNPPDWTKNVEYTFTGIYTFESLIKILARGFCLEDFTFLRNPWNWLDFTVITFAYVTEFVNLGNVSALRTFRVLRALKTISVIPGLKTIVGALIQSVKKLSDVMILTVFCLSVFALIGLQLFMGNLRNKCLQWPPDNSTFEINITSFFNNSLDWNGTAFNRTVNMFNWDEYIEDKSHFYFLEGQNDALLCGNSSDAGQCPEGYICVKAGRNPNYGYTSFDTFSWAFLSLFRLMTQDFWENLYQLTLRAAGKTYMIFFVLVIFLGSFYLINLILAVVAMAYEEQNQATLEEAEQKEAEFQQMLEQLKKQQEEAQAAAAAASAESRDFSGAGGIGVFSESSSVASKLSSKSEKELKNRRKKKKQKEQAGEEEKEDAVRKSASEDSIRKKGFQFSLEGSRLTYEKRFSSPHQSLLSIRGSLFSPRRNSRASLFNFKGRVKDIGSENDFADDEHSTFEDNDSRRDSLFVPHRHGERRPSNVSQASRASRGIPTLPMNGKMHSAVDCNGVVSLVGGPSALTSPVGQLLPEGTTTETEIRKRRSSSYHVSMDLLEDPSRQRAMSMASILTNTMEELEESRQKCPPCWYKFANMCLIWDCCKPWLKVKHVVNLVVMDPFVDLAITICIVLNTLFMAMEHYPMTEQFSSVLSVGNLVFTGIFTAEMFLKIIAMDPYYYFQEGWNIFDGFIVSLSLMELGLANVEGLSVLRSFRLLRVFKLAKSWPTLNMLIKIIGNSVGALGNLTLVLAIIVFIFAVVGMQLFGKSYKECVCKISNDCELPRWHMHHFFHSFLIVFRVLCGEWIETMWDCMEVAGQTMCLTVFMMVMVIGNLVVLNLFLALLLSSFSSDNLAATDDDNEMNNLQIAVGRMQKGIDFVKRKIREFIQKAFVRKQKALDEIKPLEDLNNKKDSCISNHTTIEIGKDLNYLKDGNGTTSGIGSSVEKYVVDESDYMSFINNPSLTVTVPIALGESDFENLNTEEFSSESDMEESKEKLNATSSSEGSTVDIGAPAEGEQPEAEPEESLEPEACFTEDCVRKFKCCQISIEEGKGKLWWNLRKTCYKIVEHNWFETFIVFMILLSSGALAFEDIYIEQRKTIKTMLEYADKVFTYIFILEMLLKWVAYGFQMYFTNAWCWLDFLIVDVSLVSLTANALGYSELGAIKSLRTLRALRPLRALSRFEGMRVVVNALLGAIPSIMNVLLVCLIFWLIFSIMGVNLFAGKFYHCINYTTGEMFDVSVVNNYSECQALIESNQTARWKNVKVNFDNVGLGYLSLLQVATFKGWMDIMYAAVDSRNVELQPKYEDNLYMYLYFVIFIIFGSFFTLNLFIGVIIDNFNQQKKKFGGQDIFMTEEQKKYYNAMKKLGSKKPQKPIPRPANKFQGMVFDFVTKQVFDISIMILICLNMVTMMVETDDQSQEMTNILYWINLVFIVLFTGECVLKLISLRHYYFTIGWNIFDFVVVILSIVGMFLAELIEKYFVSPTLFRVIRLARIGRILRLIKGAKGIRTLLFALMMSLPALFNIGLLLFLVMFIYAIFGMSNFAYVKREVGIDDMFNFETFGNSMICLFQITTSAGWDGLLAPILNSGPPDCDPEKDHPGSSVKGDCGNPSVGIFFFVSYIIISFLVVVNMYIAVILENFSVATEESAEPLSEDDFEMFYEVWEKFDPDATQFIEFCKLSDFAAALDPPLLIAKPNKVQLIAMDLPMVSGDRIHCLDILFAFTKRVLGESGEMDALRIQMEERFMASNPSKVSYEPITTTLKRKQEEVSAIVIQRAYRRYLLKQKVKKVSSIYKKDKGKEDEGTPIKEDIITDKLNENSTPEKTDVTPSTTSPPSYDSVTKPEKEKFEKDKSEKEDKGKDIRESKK
# UniProt Q15858, sequence (Q15858 whole entry): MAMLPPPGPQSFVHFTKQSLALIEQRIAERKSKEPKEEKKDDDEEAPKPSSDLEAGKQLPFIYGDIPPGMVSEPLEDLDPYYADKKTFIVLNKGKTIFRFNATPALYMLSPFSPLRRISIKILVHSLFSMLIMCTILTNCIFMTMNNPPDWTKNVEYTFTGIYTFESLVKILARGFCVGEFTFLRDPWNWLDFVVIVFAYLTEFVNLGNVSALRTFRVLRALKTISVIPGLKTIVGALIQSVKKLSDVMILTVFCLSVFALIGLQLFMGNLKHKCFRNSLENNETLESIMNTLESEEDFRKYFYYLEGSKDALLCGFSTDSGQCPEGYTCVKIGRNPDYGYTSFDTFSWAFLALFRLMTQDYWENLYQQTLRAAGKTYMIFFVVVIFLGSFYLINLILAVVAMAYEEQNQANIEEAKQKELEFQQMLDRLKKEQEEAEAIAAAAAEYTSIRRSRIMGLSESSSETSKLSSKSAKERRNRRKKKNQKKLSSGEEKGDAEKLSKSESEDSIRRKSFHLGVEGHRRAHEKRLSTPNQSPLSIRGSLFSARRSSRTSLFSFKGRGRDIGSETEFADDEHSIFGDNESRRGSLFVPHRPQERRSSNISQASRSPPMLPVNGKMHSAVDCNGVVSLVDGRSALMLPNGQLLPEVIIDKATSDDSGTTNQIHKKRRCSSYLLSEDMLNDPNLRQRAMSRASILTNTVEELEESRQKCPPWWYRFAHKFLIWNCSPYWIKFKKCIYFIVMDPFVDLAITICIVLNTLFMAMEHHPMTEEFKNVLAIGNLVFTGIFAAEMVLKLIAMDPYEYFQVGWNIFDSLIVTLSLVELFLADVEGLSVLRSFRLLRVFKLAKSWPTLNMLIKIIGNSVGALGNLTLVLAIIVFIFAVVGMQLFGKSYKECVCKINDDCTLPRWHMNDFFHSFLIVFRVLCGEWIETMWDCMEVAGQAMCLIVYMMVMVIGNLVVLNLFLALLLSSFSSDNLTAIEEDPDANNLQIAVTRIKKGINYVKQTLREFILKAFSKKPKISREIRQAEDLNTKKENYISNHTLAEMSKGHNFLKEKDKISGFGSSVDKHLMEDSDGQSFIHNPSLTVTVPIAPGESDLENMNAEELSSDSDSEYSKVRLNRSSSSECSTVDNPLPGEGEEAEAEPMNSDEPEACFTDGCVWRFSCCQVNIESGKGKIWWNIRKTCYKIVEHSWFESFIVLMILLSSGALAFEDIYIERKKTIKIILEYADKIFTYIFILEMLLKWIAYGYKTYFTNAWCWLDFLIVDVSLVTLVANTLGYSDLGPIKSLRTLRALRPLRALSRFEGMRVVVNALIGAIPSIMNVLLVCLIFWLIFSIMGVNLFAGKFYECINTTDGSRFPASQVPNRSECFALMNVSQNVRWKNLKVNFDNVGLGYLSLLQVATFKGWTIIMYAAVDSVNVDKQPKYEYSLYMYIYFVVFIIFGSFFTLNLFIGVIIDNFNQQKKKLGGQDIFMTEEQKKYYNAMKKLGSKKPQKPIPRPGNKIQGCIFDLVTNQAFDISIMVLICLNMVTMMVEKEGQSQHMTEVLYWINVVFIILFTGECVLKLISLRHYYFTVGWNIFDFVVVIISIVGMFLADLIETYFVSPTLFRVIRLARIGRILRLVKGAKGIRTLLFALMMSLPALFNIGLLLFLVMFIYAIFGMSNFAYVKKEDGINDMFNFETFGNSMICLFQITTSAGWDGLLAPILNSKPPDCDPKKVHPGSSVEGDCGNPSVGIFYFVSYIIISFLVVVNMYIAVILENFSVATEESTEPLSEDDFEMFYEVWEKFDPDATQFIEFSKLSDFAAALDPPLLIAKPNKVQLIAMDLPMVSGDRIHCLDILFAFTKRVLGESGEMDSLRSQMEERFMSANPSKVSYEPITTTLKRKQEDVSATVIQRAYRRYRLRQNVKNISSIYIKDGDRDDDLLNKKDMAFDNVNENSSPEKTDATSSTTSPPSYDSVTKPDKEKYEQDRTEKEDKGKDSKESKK
substance,measurement,setting,value
mu-conotoxin KIIIA (from UniProt P0C195),Kd,NaV1.7 (Homo sapiens),97 nM
same,Kd,[1],5 nM
same,Kd,[2],37 nM
